Laboratory results reported in IntAct's records for PubMed 22001206.

B1: Dipeptidyl peptidase 4 (Homo sapiens), P27487 (parent)
chain: MKTPWKVLLGLLGAAALVTIITVPVVLLNKGTDDATADSRKTYTLTDYLKNTYRLKLYSLRWISDHEYLYKQENNILVFNAEYGNSSVFLENSTFDEFGHSINDYSISPDGQFILLEYNYVKQWRHSYTASYDIYDLNKRQLITEERIPNNTQWVTWSPVGHKLAYVWNNDIYVKIEPNLPSYRITWTGKEDIIYNGITDWVYEEEVFSAYSALWWSPNGTFLAYAQFNDTEVPLIEYSFYSDESLQYPKTVRVPYPKAGAVNPTVKFFVVNTDSLSSVTNATSIQITAPASMLIGDHYLCDVTWATQERISLQWLRRIQNYSVMDICDYDESSGRWNCLVARQHIEMSTTGWVGRFRPSEPHFTLDGNSFYKIISNEEGYRHICYFQIDKKDCTFITKGTWEVIGIEALTSDYLYYISNEYKGMPGGRNLYKIQLSDYTKVTCLSCELNPERCQYYSVSFSKEAKYYQLRCSGPGLPLYTLHSSVNDKGLRVLEDNSALDKMLQNVQMPSKKLDFIILNETKFWYQMILPPHFDKSKKYPLLLDVYAGPCSQKADTVFRLNWATYLASTENIIVASFDGRGSGYQGDKIMHAINRRLGTFEVEDQIEAARQFSKMGFVDNKRIAIWGWSYGGYVTSMVLGSGSGVFKCGIAVAPVSRWEYYDSVYTERYMGLPTPEDNLDHYRNSTVMSRAENFKQVEYLLIHGTADDNVHFQQSAQISKALVDVGVDFQAMWYTDEDHGIASSTAHQHIYTHMSHFIKQCFSLP
partner: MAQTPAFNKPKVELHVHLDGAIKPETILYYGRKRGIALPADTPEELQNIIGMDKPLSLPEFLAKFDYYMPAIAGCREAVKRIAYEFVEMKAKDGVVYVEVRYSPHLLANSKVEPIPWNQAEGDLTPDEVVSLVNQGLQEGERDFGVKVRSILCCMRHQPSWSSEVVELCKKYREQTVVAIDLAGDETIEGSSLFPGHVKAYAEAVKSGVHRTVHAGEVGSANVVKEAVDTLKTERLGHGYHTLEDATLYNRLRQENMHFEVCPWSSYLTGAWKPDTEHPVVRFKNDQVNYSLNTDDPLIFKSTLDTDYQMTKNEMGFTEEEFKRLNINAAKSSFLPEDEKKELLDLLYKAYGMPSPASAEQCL

Variants of: B1
Conditions: with ada_bovin ADA

Row | Variant | effect of a mutation on the interaction
1 | Y256A | decreasing interaction

Variants of: B1
Conditions: with ada_bovin ADA
Remark: another data set of the same source

Row | Variant | effect of a mutation on the interaction
2 | Y248A | decreasing interaction

Variants of: B1
Conditions: with ada_bovin ADA
Remark: another data set of the same source

Row | Variant | effect of a mutation on the interaction
3 | Y238A | decreasing interaction
